Laboratory results: PMC5396282, “Characterization of Carboxylic Acid Reductases as Enzymes in the Toolbox for Synthetic Chemistry” (Chemcatchem, 2017)

Experiments:
mpCAR = target: T1, mpCAR (Mycolicibacterium phlei, UniProt A0A5N5VEC4); assay: NADPH oxidation at […] nm, product inhibition kinetics; assay type: biochemical; conditions: pH 7.5, 30 °C, 10 mM MgCl2
T1 construct: gene car; expressed in E. coli BL21(DE3) with B. subtilis Sfp (phosphopantetheinylated); around 130 kDa

CCCCCCCCCCCC(=O)O [1] = assay: purified protein; assay type: biochemical, Nocardia iowensis; conditions: 1 mM ATP, […] NADPH, 10 mM MgCl2, 100 mM Tris-HCl pH 7.5, 30 °C
O=C(O)/C=C/c1ccccc1 = assay: purified protein; assay type: biochemical, Nocardia iowensis; conditions: 1 mM ATP, […] NADPH, 10 mM MgCl2, 100 mM Tris-HCl pH 7.5, 30 °C
COc1ccc(C(=O)O)cc1 = assay: purified protein; conditions: 1 mM ATP, 0.25 mM NADPH, 10 mM MgCl2, 100 mM Tris-HCl pH 7.5, 30 °C
CCCCCCCCCCCC(=O)O [2] = assay: purified protein; conditions: 1 mM ATP, […] NADPH, 10 mM MgCl2, 100 mM Tris-HCl pH 7.5, 30 °C
CCCCCCCCCCCCCCCCCC(=O)O [3] = assay: purified protein; conditions: 1 mM ATP, […] NADPH, 10 mM MgCl2, 100 mM Tris-HCl pH 7.5, 30 °C
CCCCCCCCCCCC(=O)O [4] = assay: purified protein; assay type: biochemical, Tsukamurella paurometabola; conditions: 1 mM ATP, […] NADPH, 10 mM MgCl2, 100 mM Tris-HCl pH 7.5, 30 °C
O=C(O)C#Cc1ccccc1 = assay: purified protein; assay type: biochemical, Tsukamurella paurometabola; conditions: 1 mM ATP, […] NADPH, 10 mM MgCl2, 100 mM Tris-HCl pH 7.5, 30 °C
CCCCCCCCCCCCCCCCCC(=O)O [5] = assay: purified protein; assay type: biochemical, Tsukamurella paurometabola; conditions: 1 mM ATP, […] NADPH, 10 mM MgCl2, 100 mM Tris-HCl pH 7.5, 30 °C
CCCCCCCC(=O)O = assay: purified protein; assay type: biochemical, Tsukamurella paurometabola; conditions: 1 mM ATP, […] NADPH, 10 mM MgCl2, 100 mM Tris-HCl pH 7.5, 30 °C
purified protein [6] = substrate: Cc1ccc(C(=O)O)cc1; assay: purified protein; conditions: 1 mM ATP, 0.25 mM NADPH, 10 mM MgCl2, 100 mM Tris-HCl pH 7.5, 30 °C
purified protein [7] = substrate: O=C(O)/C=C/c1ccccc1; assay: purified protein; conditions: 1 mM ATP, 0.25 mM NADPH, 10 mM MgCl2, 100 mM Tris-HCl pH 7.5, 30 °C
purified protein [8] = substrate: CCCCCCCC(=O)O; assay: purified protein; conditions: 1 mM ATP, 0.25 mM NADPH, 10 mM MgCl2, 100 mM Tris-HCl pH 7.5, 30 °C
purified protein [9] = substrate: CCCCCCCCCCCC(=O)O; assay: purified protein; assay type: biochemical, Mycolicibacterium smegmatis; conditions: 1 mM ATP, […] NADPH, 10 mM MgCl2, 100 mM Tris-HCl pH 7.5, 30 °C

Nc1ncnc2c1ncn2[C@@H]1O[C@H](COP(=O)(O)O)[C@@H](O)[C@H]1O [AMP]
Ki (mpCAR; competitive with ATP): 8200 ± 900 µM

NC(=O)c1ccc[n+]([C@@H]2O[C@H](COP(=O)(O)OP(=O)(O)OC[C@H]3O[C@@H](n4cnc5c(N)ncnc54)[C@H](OP(=O)(O)O)[C@@H]3O)[C@@H](O)[C@H]2O)c1 [NADP^+]
Ki (mpCAR; competitive with NADPH): 143 ± 8 µM

O=P(O)(O)OP(=O)(O)O [PPi]
Ki (mpCAR; mixed inhibition with ATP): 220 ± 50 µM

niCAR (Nocardia iowensis)
Km (CCCCCCCCCCCC(=O)O [1]): 20 ± 10 µM
kcat (CCCCCCCCCCCC(=O)O [1]): 2.62 ± 0.15 s⁻¹
kcat/Km (CCCCCCCCCCCC(=O)O [1]): 117000 ± 33300 M⁻¹ s⁻¹
Km (O=C(O)/C=C/c1ccccc1): 50 ± 20 µM
kcat (O=C(O)/C=C/c1ccccc1): 0.128 ± 0.0117 s⁻¹
kcat/Km (O=C(O)/C=C/c1ccccc1): 2830 ± 1170 M⁻¹ s⁻¹
Km (COc1ccc(C(=O)O)cc1): 250 ± 10 µM
kcat (COc1ccc(C(=O)O)cc1): 0.817 s⁻¹
kcat/Km (COc1ccc(C(=O)O)cc1): 3330 M⁻¹ s⁻¹

noCAR (Nocardia otitidiscaviarum)
Km (CCCCCCCCCCCC(=O)O [2]): 40 ± 10 µM
kcat (CCCCCCCCCCCC(=O)O [2]): 1.65 ± 0.05 s⁻¹
kcat/Km (CCCCCCCCCCCC(=O)O [2]): 41700 ± 5000 M⁻¹ s⁻¹
Km (CCCCCCCCCCCCCCCCCC(=O)O [3]): 20 ± 10 µM
kcat (CCCCCCCCCCCCCCCCCC(=O)O [3]): 0.183 ± 0.0167 s⁻¹
kcat/Km (CCCCCCCCCCCCCCCCCC(=O)O [3]): 8330 ± 5000 M⁻¹ s⁻¹

tpCAR (Tsukamurella paurometabola DSM 20162)
Km (CCCCCCCCCCCC(=O)O [4]): 40 ± 10 µM
kcat (CCCCCCCCCCCC(=O)O [4]): 2.62 ± 0.0833 s⁻¹
kcat/Km (CCCCCCCCCCCC(=O)O [4]): 60000 ± 6670 M⁻¹ s⁻¹
Km (O=C(O)C#Cc1ccccc1): 90 ± 20 µM
kcat (O=C(O)C#Cc1ccccc1): 0.1 ± 0.0667 s⁻¹
kcat/Km (O=C(O)C#Cc1ccccc1): 1170 ± 667 M⁻¹ s⁻¹
Km (CCCCCCCCCCCCCCCCCC(=O)O [5]): 120 ± 30 µM
kcat (CCCCCCCCCCCCCCCCCC(=O)O [5]): 0.25 ± 0.0167 s⁻¹
kcat/Km (CCCCCCCCCCCCCCCCCC(=O)O [5]): 2000 ± 500 M⁻¹ s⁻¹
Km (CCCCCCCC(=O)O): 200 ± 10 µM
kcat (CCCCCCCC(=O)O): 3.65 ± 0.05 s⁻¹
kcat/Km (CCCCCCCC(=O)O): 19000 ± 833 M⁻¹ s⁻¹

B1: msCAR (Mycolicibacterium smegmatis MC2 155) (protein)
chain: MTSDVHDATDGVTETALDDEQSTRRIAELYATDPEFAAAAPLPAVVDAAHKPGLRLAEILQTLFTGYGDRPALGYRARELATDEGGRTVTRLLPRFDTLTYAQVWSRVQAVAAALRHNFAQPIYPGDAVATIGFASPDYLTLDLVCAYLGLVSVPLQHNAPVSRLAPILAEVEPRILTVSAEYLDLAVESVRDVNSVSQLVVFDHHPEVDDHRDALARAREQLAGKGIAVTTLDAIADEGAGLPAEPIYTADHDQRLAMILYTSGSTGAPKGAMYTEAMVARLWTMSFITGDPTPVINVNFMPLNHLGGRIPISTAVQNGGTSYFVPESDMSTLFEDLALVRPTELGLVPRVADMLYQHHLATVDRLVTQGADELTAEKQAGAELREQVLGGRVITGFVSTAPLAAEMRAFLDITLGAHIVDGYGLTETGAVTRDGVIVRPPVIDYKLIDVPELGYFSTDKPYPRGELLVRSQTLTPGYYKRPEVTASVFDRDGYYHTGDVMAETAPDHLVYVDRRNNVLKLAQGEFVAVANLEAVFSGAALVRQIFVYGNSERSFLLAVVVPTPEALEQYDPAALKAALADSLQRTARDAELQSYEVPADFIVETEPFSAANGLLSGVGKLLRPNLKDRYGQRLEQMYADIAATQANQLRELRRAAATQPVIDTLTQAAATILGTGSEVASDAHFTDLGGDSLSALTLSNLLSDFFGFEVPVGTIVNPATNLAQLAQHIEAQRTAGDRRPSFTTVHGADATEIRASELTLDKFIDAETLRAAPGLPKVTTEPRTVLLSGANGWLGRFLTLQWLERLAPVGGTLITIVRGRDDAAARARLTQAYDTDPELSRRFAELADRHLRVVAGDIGDPNLGLTPEIWHRLAAEVDLVVHPAALVNHVLPYRQLFGPNVVGTAEVIKLALTERIKPVTYLSTVSVAMGIPDFEEDGDIRTVSPVRPLDGGYANGYGNSKWAGEVLLREAHDLCGLPVATFRSDMILAHPRYRGQVNVPDMFTRLLLSLLITGVAPRSFYIGDGERPRAHYPGLTVDFVAEAVTTLGAQQREGYVSYDVMNPHDDGISLDVFVDWLIRAGHPIDRVDDYDDWVRRFETALTALPEKRRAQTVLPLLHAFRAPQAPLRGAPEPTEVFHAAVRTAKVGPGDIPHLDEALIDKYIRDLREFGLI
notes: expressed in E. coli BL21(DE3) with B. subtilis Sfp (phosphopantetheinylated); one of three M. smegmatis paralogues, distinct from the CAR of Moura et al
Km (purified protein [6]): 160 ± 20 µM
kcat (purified protein [6]): 2.57 s⁻¹
kcat/Km (purified protein [6]): 15000 M⁻¹ s⁻¹
Km (purified protein [7]): 75 ± 4 µM
kcat (purified protein [7]): 1.97 s⁻¹
kcat/Km (purified protein [7]): 26700 M⁻¹ s⁻¹
Km (purified protein [8]): 100 ± 10 µM
kcat (purified protein [8]): 4.93 s⁻¹
kcat/Km (purified protein [8]): 50000 M⁻¹ s⁻¹
Km (purified protein [9]): 50 ± 10 µM
kcat (purified protein [9]): 2.18 ± 0.0833 s⁻¹
kcat/Km (purified protein [9]): 45000 ± 6670 M⁻¹ s⁻¹
